From paper PMC4813479 (The Journal of Biological Chemistry, 2015)

Target: full-length human αIIbβ3 on CHO K1 cells (human, UniProt P08514 32-1039; P05106 27-788)
Assay: cell-based or functional assay

B1: AGDV tetrapeptide (peptide)
peptide: AGDV
EC50 of LIBS1 epitope exposure on CHO cells expressing αIIbβ3 (flow cytometry, 1 mM Mg2+ and 1 mM Ca2+): 1.43 mM
